Source: article PMC8054141, “The molecular basis of the inhibition of CaV1 calcium-dependent inactivation by the distal carboxy tail” (The Journal of Biological Chemistry, 2021)
Each block holds one binder with its values, some of them ahead of it.

Target: T1, Cerulean-ICDI1.4 (human)
T1 construct: CaV1.4 alpha1 subunit, human clone NP005174.2; ICDI domain of the distal carboxy tail; Fluorophore cloned KpnI/NotI and the channel peptide NotI/XbaI in pcDNA3, so Cerulean probably precedes the peptide; also called ICDI domain from CaV1.4; source: HEK293, transiently transfected (PEI), in live cells
Test: FRET or BRET; live-cell FRET two-hybrid (3^3-FRET) in HEK293 cells on an inverted microscope; Venus-tagged peptide as acceptor, Cerulean-tagged peptide as donor; FRET ratio of each cell against free donor concentration; Tyrode's bath with 2 mM CaCl2, pH 7.4; relative Kd calibrated and converted to Ka = 1/Kd
Details: partners not purified

- Ka: 5.8e+06 M⁻¹
B1: Venus-PreIQ3-IQ-A1.3 F[−2]A (domain or fragment)
chain: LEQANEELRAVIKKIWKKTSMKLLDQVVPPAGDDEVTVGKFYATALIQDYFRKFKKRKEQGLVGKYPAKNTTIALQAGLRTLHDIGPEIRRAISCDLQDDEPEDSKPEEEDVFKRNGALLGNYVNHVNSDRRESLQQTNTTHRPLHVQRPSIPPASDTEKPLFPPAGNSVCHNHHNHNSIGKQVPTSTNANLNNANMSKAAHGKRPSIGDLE
modifications: F[-2]A, two residues before the canonical IQ isoleucine (inferred as 1656 on P27732). Limits approximate, as for m1. Venus tag omitted.

- Ka: 2.14e+07 M⁻¹
B2: Venus-PreIQ3-IQ-A1.3 (domain or fragment)
chain: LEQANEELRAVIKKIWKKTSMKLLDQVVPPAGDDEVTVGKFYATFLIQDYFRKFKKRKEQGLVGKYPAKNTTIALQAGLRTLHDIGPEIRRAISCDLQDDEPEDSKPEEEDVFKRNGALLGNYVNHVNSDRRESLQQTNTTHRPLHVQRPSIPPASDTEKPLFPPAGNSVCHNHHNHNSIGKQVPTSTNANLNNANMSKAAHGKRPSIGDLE
modifications: Limits approximate: about 30 residues PreIQ3 + IQ + about 150 residues A region. Position of the IQ isoleucine (I[0]) on P27732 was inferred as 1656; the paper's numbering (KPY1626, ALQ1635) implies …
